Our source for the MAPPIT signal, % of WT values is article PMC3438196.

Test in all cases: two-hybrid; MAPPIT (mammalian two-hybrid) in intact HEK293T cells: bait on the EpoR/leptin receptor chimera, prey on gp130 fragments, pXP2d2-rPAP1-luciferase reporter; fold induction of luciferase, Epo-stimulated (10 ng/ml hEpo) over unstimulated; 6-well or 96-well calcium phosphate transfection
For test [1], the target named is Apobec3G D128K MAPPIT bait (human) (UniProt Q9HC16).
Test [2] deals with Apobec3G D128Q MAPPIT bait (human) (UniProt Q9HC16).
Apobec3G D128Q MAPPIT bait (human), sequence (Q9HC16 whole entry D128Q): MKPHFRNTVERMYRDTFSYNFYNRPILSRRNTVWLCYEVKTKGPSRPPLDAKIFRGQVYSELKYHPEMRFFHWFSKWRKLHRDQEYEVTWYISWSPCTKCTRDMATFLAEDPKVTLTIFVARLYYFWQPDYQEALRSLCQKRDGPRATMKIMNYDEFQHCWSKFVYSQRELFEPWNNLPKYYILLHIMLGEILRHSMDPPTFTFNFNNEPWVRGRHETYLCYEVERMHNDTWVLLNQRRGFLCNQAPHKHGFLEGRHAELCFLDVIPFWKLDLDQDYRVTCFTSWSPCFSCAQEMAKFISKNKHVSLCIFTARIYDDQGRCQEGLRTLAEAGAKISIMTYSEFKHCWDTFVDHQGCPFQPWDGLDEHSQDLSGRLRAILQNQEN
The target in test [3] is Apobec3G E110S MAPPIT bait (human) (UniProt Q9HC16).
Apobec3G E110S MAPPIT bait (human), sequence (Q9HC16 whole entry E110S): as the sequence (Q9HC16 whole entry D128Q) above, with E110S, Q128D counted along it
For test [4], the target named is Apobec3G K63E MAPPIT bait (human) (UniProt Q9HC16).
Apobec3G K63E MAPPIT bait (human), sequence (Q9HC16 whole entry K63E): as the sequence (Q9HC16 whole entry D128Q) above, with K63E, Q128D counted along it
Test [5] concerns the target Apobec3G N20A MAPPIT bait (human) (UniProt Q9HC16).
For test [6], the target named is Apobec3G N31S MAPPIT bait (human) (UniProt Q9HC16).
Apobec3G N31S MAPPIT bait (human), sequence (Q9HC16 whole entry N31S): as the sequence (Q9HC16 whole entry D128Q) above, with N31S, Q128D counted along it
Test [7] concerns the target Apobec3G QE132-133AA MAPPIT bait (human) (UniProt Q9HC16).
The target of test [8] is Apobec3G R11S MAPPIT bait (human) (UniProt Q9HC16).
Apobec3G R11S MAPPIT bait (human), sequence (Q9HC16 whole entry R11S): as the sequence (Q9HC16 whole entry D128Q) above, with R11S, Q128D counted along it
In test [9] the target is Apobec3G R136A MAPPIT bait (human) (UniProt Q9HC16).
Apobec3G R136A MAPPIT bait (human), sequence (Q9HC16 whole entry R136A): as the sequence (Q9HC16 whole entry D128Q) above, with Q128D, R136A counted along it
Test [10] deals with Apobec3G R14S MAPPIT bait (human) (UniProt Q9HC16).
Apobec3G R14S MAPPIT bait (human), sequence (Q9HC16 whole entry R14S): as the sequence (Q9HC16 whole entry D128Q) above, with R14S, Q128D counted along it
In test [11] the target is Apobec3G RD102-103EK MAPPIT bait (human) (UniProt Q9HC16).
Apobec3G RD102-103EK MAPPIT bait (human), sequence (Q9HC16 whole entry R102E/D103K): as the sequence (Q9HC16 whole entry D128Q) above, with R102E, D103K, Q128D counted along it
For test [12], the target named is Apobec3G S137A MAPPIT bait (human) (UniProt Q9HC16).
Apobec3G S137A MAPPIT bait (human), sequence (Q9HC16 whole entry S137A): as the sequence (Q9HC16 whole entry D128Q) above, with Q128D, S137A counted along it
Test [13] addresses Apobec3G TK98-99AS MAPPIT bait (human) (UniProt Q9HC16).
Test [14] concerns the target Apobec3G V9A MAPPIT bait (human) (UniProt Q9HC16).
Test [15] has as its target Apobec3G Y124A MAPPIT bait (human) (UniProt Q9HC16).
The target in test [16] is Apobec3G Y19A MAPPIT bait (human) (UniProt Q9HC16).
Apobec3G Y19A MAPPIT bait (human), sequence (Q9HC16 whole entry Y19A): as the sequence (Q9HC16 whole entry D128Q) above, with Y19A, Q128D counted along it

Apobec3G Y124A MAPPIT bait (human), sequence (Q9HC16 whole entry Y124A): as the sequence (Q9HC16 whole entry D128Q) above, with Y124A, Q128D counted along it
Apobec3G D128K MAPPIT bait (human), sequence (Q9HC16 whole entry D128K): as the sequence (Q9HC16 whole entry D128Q) above, with Q128K counted along it
Apobec3G N20A MAPPIT bait (human), sequence (Q9HC16 whole entry N20A): as the sequence (Q9HC16 whole entry D128Q) above, with N20A, Q128D counted along it
Apobec3G TK98-99AS MAPPIT bait (human), sequence (Q9HC16 whole entry T98A/K99S): as the sequence (Q9HC16 whole entry D128Q) above, with T98A, K99S, Q128D counted along it
Apobec3G QE132-133AA MAPPIT bait (human), sequence (Q9HC16 whole entry Q132A/E133A): as the sequence (Q9HC16 whole entry D128Q) above, with Q128D, Q132A, E133A counted along it
Apobec3G V9A MAPPIT bait (human), sequence (Q9HC16 whole entry V9A): as the sequence (Q9HC16 whole entry D128Q) above, with V9A, Q128D counted along it

As for “Gagpol MAPPIT prey (pMG2-Gagpol) (natural protein)”, the MAPPIT signal, % of WT in test [1] was 98 % of WT; in [2], 71 % of WT; in test [3], 80 % of WT; in test [4], 104 % of WT; in [5], 71 % of WT; in test [6], 78 % of WT. The MAPPIT signal, % of WT in [7] was 80 % of WT; in test [8], 83 % of WT; in [9], 48 % of WT; in [10] it was 106 % of WT; in test [11], 85 % of WT; in test [12] it was 127 % of WT. Further, the MAPPIT signal, % of WT in [13] was 79 % of WT; in [14], 101 % of WT; in test [15], 61 % of WT; in test [16] it was 36 % of WT.
